Experimental data taken from the DeepSol protein solubility set.

Assay: soluble on expression in E. coli; label from the status in PepcDB or PDB records

Row | Sequence | soluble on expression in E. coli
1 | MEDLLVVGQIINTHGLRGEMKVMPLTEDMRRFDYLEYVILKGKKVKVEGVKYFKDKVILKLEGINSIEEAEKLKRTYLEIEREDAIELEEDEYFIVDLVGCTVVDTEGFEYGKIKDVIQTPSNDVYWVQGKKEVLVPVLKDIVLDINMDEKLITIRPSGEWQYEDLEHHHHHH | not soluble
2 | MEEGVNMDIRPTRIELIRTRRRIRLAKKGLDLLKMKRSALIYEFLQISRTIRGMKENLRKEVVEALNIIKVASVLEGSLALERIANMSSDSRINVNSRNVMGVNIPTLEVSYNLSILSDVYRTVSVPVAIDDSIRRFQKLFYDLILIVEKENSLRNLLMEIDRTKRRSNAIENILIPRLEYQAKMIKMTLDERERDTFTTLKTIKKKIEAENDLEHHHHHH | not soluble
3 | MEEHPRAWIISVGNELLIGRTINTNAAWLGSRLTLLGFEVERVVTVPDRVEDIAEEVGRALGRARVVITTGGLGPTYDDVTLQGVAMALGRGLKLHPGALEMVRRFYSKRGLGLTEDRVKMAMLPDGAEPLENPVGAAPGAVVEARGSLVASLPGVPSEMEAMFEKALRPLLEEIAPPGAVVECGIAVVGVPESSLAPYIKEASRVSPRVYVKSHPQGSEIGKPLVR | not soluble
4 | MEEKVEFILEVRSIPVYGDEFSPRLRKFFPIDYEPVERVTVPTSKKADYAVMISSNLKPFSIKEGDYILISLDDEPQEGDLVAVLVKDFRITVGRVKERQEDIFVVEVGNEVGIYRCFIFPYLDQLHRSSFELSFNPYVLGKITAILRKKPAH | soluble
5 | MEELTIWEQHTATLYKDPRRGFGIAVSGGHDRASGSVVVSDVVPGGPAEGRLRTGDHIVMVNGVSVENVTSAFAIQILKTCTKTANVTVKRPRRVQLPATKASPASGHQLSDQEEADHGRGYEGDSSSGSGRSWGERSRRSRAGRRGRVGSHGRRSSGGGSEANGLDLVSGYKRLPKQDVLMRPLKSVLVKRRNSEEFGVKLGSQIFIKHITESGLAARNHGLQEGDLILQINGVSSANLSLSDTRRLIEKSEGELTLLVLRDSGQFLVNIPPAVSDSDSSLMEDISDLTSELSQAPPSHVPPPPLKGQRSPEDSQTDSPVETPQPRRRERSVNSRAIAEPESPGESRYDIYRVPSRQSLEDRGYSPDTRVVSFPKGASIGLRLAGGNDVGIFVSGVQAGSPADGQGIQEGDEILQVNGMPFRNLTREEAVQFLLGLPPGEDMELVTQSKQDIFKKMVQSRVGDSFYIRTHFELEPSPPYGLGFTRGDVFHVVDTLYPGSGPGHGHSSHGGLWLAARMGRDLREQERGVIPNQSRAEQLASLEAAQRAAGVGPGASVGSNPRAEFWRLRGLRRGTKKASTQRSREDLSALTRQGHYPPYERVVLREASFKRPVVILGPVADIAMKKLTTEMPEEFEIAESMSRTDSPSKIIKLDTVRVIAERDKHALLDVTPSAIERLNYVQYYPIVIFCAPESRPALKALREWLAPASRRSSRRLYAQAQKLQKHSGHLFTATIPLHGTSDSWYQEVKAVIQQQQARPIWTAEDQLNSSSEDLDLPGHGLAASSGDLSCDSRTNSDYEDTDGEGAYTDREGGPQDVDEEVAPTALARSSEPVWVDDHQGLMGHGTTITDKWETQADSHYTQDQRRQDSMRTYKHEALRKKFTRARDVESSDDEGYDWGPATDL | soluble
6 | MEELVGLLRIRVKRGINLAQRDTLSSDPFVVITMGSQKLKTRVVENNCNPEWNEELTLALRHPDEPVNLIVYDKDTFTSHDKMGDAKIDIKPFLEVHKMGLQELPDGTEIKRVVPNRENCLAEASSIVSNNGKIVQNMILLLRNVECGEVEIQLEWIDIPGSRGL | not soluble
7 | MEEMSMEKIVNDILKEEVYYEKLQNGLDVYFMPKRGFMKKYAILATNYGSNDLEFVPIGEDKKIRVNEGIAHFLEHKMFEQPDGGDAFDKFSKLGVNANAFTNFTMTAYLFSATENFYESLEHLIDYVQTPYFTDENVEKEKGIIAQEIKMYNDDPDWNVYFNCLKAMYVNYPARIDIAGTVDSIYKITKEELYKCYNTFYNPGNMALFVVGDLDVEKVIDVTKKS | not soluble
8 | MEERNEQVVEEVKEAQVEEAVTPENSEETVEEKSEAALLQEKVDELQAKLTETEGRTLRLQADFENYKRRVQMDKQAAEKYRAQSLVSDILPALDNFERAMQVEATDEQTKSLLQGMEMVHRQLLEALNKEGVEVIEAVGKQFDPNEHQAIMQVEDSEFESNAVVEEFQKGYKLKDRVIRPSMVKVNQ | not soluble
9 | MEEWPALQWSQGTPASGPALQALEEYAFVPRDDESRQGIRTDALLVIRDGRLLYERYAGATGPQTPHLAWSASKSLLAVLLGVAFGEGRFQLQDPAAKFYPPLEAHPDITLADLLHWASGLDWQEDYEYAPLNSSVVAMLYTRGHRDMAAFTVQQAASGPPGQVFRYSSGDSNLLAASLRGMVGEGQYADYPWRALFEPLGITQAVWERDAAGTFVASSYLYLTARDLARIGLLMQRDGRWRDRQLLPKAWVEFCRTPFRGYRANQDVAVAGGHWWLNREVDGAPRPWPDAPADTYAALGHWGQALYVLPAQRLVIVRYGDDRDGSYQHNELLKRVLAAFATPEQPLEHHHHHH | not soluble
10 | MEFYDARKWCHYQSPVPSYLAYVPDLSTSNFLATYARAAFETNRFWIGLSRFDYFDPYLWDNGRPVTYTNFGTGTGNFVAEHTLNGKWYLYGNGAKNVFVCSYDPAAPPTFPPPFILTTRQSTITSANSCQPGGPISFLFAYSNDLDPQVVKDSWDLSNIDDYSGYSVYAIAKFDVLEEEDIVYFLDKKLATTYVHSHLSNSSLGFNGTTTGSDSLRIIEVGNVEGIESSQFLNFQKFFNNKDVTVCGSVCLILEKRYPNDEDISKTVSLVRYYHGIVYAVSSINPSGGTQSKAIYNLTSRTNGIFCSTDPSGGNQSKTIYNLTSKTNGLCNFAKDKDIAGLVTSVPMFYPPYPIYCANVLVSGQNITELPSMYVPQSIMYYTVFASVEDHGPLDNFQSFDFSWFNSDEPRYIQHLQSNSTVMDGVTSSGVYYIAPEIYTMKVQYNYTNKMEQAMQVRVYTYDGENSADWIPYCD | not soluble
11 | MEGLINALKYLAEHEPIDNFEEIRTRNSPIELPSGLSNFEQNIFLKENLSPKLQNDDSLKTHYWIIREWGGIKSFKQSAENSQLIRQFLSELNSGKLSSGLLKISSLSKLASFIDCERFAIYDSRAIFSLNWLLFKFTNADLFFQPQGRNRELEIRNMNVLFHFSDIKPNYRKPDVSFHQYCGLLQDLAKQVYGKQAKPYHIEMLLFKIATTWICADMDQLIKFDCLRNQDFQTA | not soluble
12 | MEGLNVLVTGSTCGLGLHTAKILFKKGANVILTCRDEIRGRHAVESLLSGVSQEQSQKEAERIHLFTLDVTNYNSICNFTDEISRMFKYLHVIINNAGIMGMPFELSVDGIEMHFATNVFGHYVVVERLLPLLLKTDRPDFKSRVIVVSSGLYRNAEAIPQVSKLLGQKTYDYSPKQAYAFSKLANCLYTGALSKMLEPHNVGVYCVRPGFVNGTELGRETHWILRALAAPIIWFIAKTLEQGCETIVYLAETSGNQLKNGSMYYERKEEAYNEMVEVTSIRQVWAILRHLEDTVWKRNTQMTDEQRNHGEMVRELLNESLIV | not soluble
13 | MEGSEEHSTDGEISSSEEEDEDPTPAHAIPARPSSVVITPTSASFVIPRKKWDLQDKTVTLHRSPLCRDEDEKEETGNSSYTRGHKRRRGEVHGCTDESYGKRRHLPPGARAPRAPRAPRVPRAPRSPRAPRSNRATRGPRSESRGAGRSTRKQARQERSQRPLPNKPWFDMSLVKPVSKITFVTLPSPLASLTLEPIQDPFLQSMLAVAAHPEIGAWQKVQPRHELRRSYKTLREFFTKSTNKDTWLDARMQAIQNAGLCTLVAMLEETIFWLQEITYHGDLPLAPAEDILLACAMSLSKVILTKLKELAPCFLPNTRDYNFVKQLFYITCATARQNKVVETLSSSYVKQPLCLLAAYAAVAPAYINANCRRRHDEVEFLGHYIKNYNPGTLSSLLTEAVETHTRDCRSASCSRLVRAILSPGTGSLGLFFVPGLNQ | soluble
14 | MEGSSSTIARKTWELENSILTVDSPDSTSDNIFYYDDTSQTRFQQEKPWENDPHYFKRVKISALALLKMVVHARSGGTIEIMGLMQGKTDGDTIIVMDAFALPVEGTETRVNAQDDAYEYMVEYSQTNKLAGRLENVVGWYHSHPGYGCWLSGIDVSTQRLNQQHQEPFLAVVIDPTRTVSAGKVEIGAFRTYSKGYKPPDEPVSEYQTIPLNKIEDFGVHCKQYYSLDVTYFKSSLDSHLLDLLWNKYWVNTLSSSPLLGNGDYVAGQISDLAEKLEQAESHLVQSRFGGVVPSSLHKKKEDESQLTKITRDSAKITVEQVHGLMSQVIKDELFNSMRQSNNKSPTDSSDPDPMITY | soluble
15 | MEHNQEIMEQFLKLLSENGRAGQSEDLSRLLFYMDGMNRQLDAVRQELQTVKVQLAQAQDTPQKTVLQGMVDGLQSKVRQAQEKLDSLREKIMQCAANAVESFKRVGVTALDKAVSAMGIHKTLEAVQQNISGSLDDARKSIKKVETLGHELRSVGGHLKNAGRAVAGRETQAVDGGQEGRFQAAFLAPMRTAYKMLSSMNNTTLAAIGNVERLETAAEAVREAKKPPVRQTETQEKEQVKELEHKEEPTETQRREKPSIRQTLTEKSEPMDVSDILSDPANIQIFDTVLEESCRQWCDCIGDAPERASGKGFASFFYEVFEQKEQEYKAELKADTRSEKPSIRKALNEKKAEAAARPSPEPERKAPEAAR | not soluble
16 | MEIFQKAKAVRLRSHHDKYLVADEDEESVTQERNGSAGAAKWTVEIIPGSTNLIRLKSAYGKYLTASNKPFLLGATGKKVLQTKPSRLDSSLAWEPIRDSALVKLKTRYGNFLRGNGGLPPWRNSVTHDIPHRSATQEWVLWHIDVVEILPANANSDHHHQHLQLQQPPSPLHHSDSLDFTPGSPSRSDRFFRQESTDSLAVGSPPKSEGRVIYYHVADDDDDVEDDSVEVSSFTFKGNGVEELTMRLKEESNVEDVIVCTRSPLNGKLFPLRLQLPPNNADMTVVLVPKSSKSESLLVLISSQVVALSLMFSVFLDLTVAEKFIK | not soluble
17 | MEIGIIGTGNIGGTLARKLIAAGHQVRVANSKGIHGVQSFADEIGATAVDVYGAVKGADAIILSIPLPALASLPNGFFDDLPETVPLIDTSNYYPGLRDPLIPEIDDGMTESVWVSQQLSHPVIKAFNNILAWSLAELGTPKGSASRLAIAVAGDNATLKQIVMNLVDDTGFDAIDAGSLEESWRQQPSTPAYCCDYDAETMKKGLTAAVRGEAASKRDRLPELFGKLGANPTHEDIVAMNRSLNPLEHHHHHH | soluble
18 | MEIGPDGKPCRACVSVEDMMKKGREMAEKIKKKESETTPSTSTGAKLHGCPVDKDELGRSTWNLLHTMSVYYPEKPTDEDKDRARSFMSILGKTYPCDFCAKDLRKDLKESPPKVESREAFALWMCQLHNKVNEKTGKPKFECRDVMQRWRDGWKDGSCDY | soluble
19 | MEIINDAELIRSMQRQQHIDAELLTDANVRFEQPLEKNNYVLSEDETPCTRVNYISLDDKTVRKFSFLPSVLMKETAFKTGMCLGSNNLSRLQKAAQQILIVRGYLTSQAIIQPQNMDSGILKLRVSAGEIGDIRYEEKRDGKSAEGSISAFNNKFPLYRNKILNLRDVEQGLENLRRLPSVKTDIQIIPSEEEGKSDLQIKWQQNKPIRFSIGIDDAGGKTTGKYQGNVALSFDNPLGLSDLFYVSYGRGLAHKTDLTDATGTETESGSRSYSVHYSVPVKKWLFSFNHNGHRYHEATEGYSVNYDYNGKQYQSSLAAERMLWRNRLHKTSVGMKLWTRQTYKYIDDAEIEVQRRRSAGWEAELRHRAYLNRWQLDGKLSYKRGTGMRQSMPAPEENGGDILPGTSRMKIITASLDAAAPFILGKQQFFYATAIQAQWNKTPLVAQDKLSIGSRYTVRGFDGEQSLFGERGFYWQNTLTWYFHPNHQFYLGADYGRVSGESAQYVSGKQLMGAVVGFRGGHKVGGMFAYDLFAGKPLHKPKGFQTTNTVYGFNLNYSF | not soluble
